Reference: patent publication US20230257454A1 (STAIDSON BEIJING BIOPHARMACEUTICALS, published 2023)
Numbering of substitutions follows the chain as printed. One block for each binder: values may come before it.

Target: T1, human C5a (source not stated) (human, UniProt P01031 678-751)
T1 sequence: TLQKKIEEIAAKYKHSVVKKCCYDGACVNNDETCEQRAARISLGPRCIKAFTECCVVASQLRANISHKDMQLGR
Assay: cell-based or functional assay

- ROS IC50: 0.81 nM
B1: Cab20 scFv (scFv, V domains shown)
VH: EVQLVESGGGLVQPGGSLKVSCAASGFTFRDYYMQWVRQAPGKGPEWVGLIRNKAIGETAEYAASVKGRFTISRDDSKSIVYLQMSSLKTEDTAVYYCTSRAGPPGLSWGQGVLVTVSS
VL: DIVMIQNPLSLPVTPGEPASISCRSSQSLLHSDGYTYLDWYLQKPGQSPQLLIYGGSNRASGVPDRFSGSGSGTDFTLKISKVEAEDVGVYYCMQHKVLPLTFAGGTKLEIK

- ROS IC50: 0.98 nM
B2: Cab28 scFv (scFv, V domains shown)
VH: B1 VH with E1D, V2M, R30S, I56V, E58G, A60T, E61Q, Q84E, T99V
VL: DIVMIQNPLSLPVTPGEPASISCRSSQNLLATDGYTYLDWYLQKPGQSPQVLIYGGSKRASGVPDRFSGSGSGTDFTLKISKVEAEDVGIYYCLQHRALPPTFGQGTKLEIK

- ROS IC50: 1.18 nM
B3: Cab30 scFv (scFv, V domains shown)
VH: B1 VH with E1D, V2M, R30S, I56V, E58G, A60T, E61Q, Q84E, T99V
VL: B1 VL with I5T, N7T, K44R, Q50H, L101P, A104G, G105Q

- ROS IC50: 1.87 nM
B4: Cab17 scFv (scFv, V domains shown)
VH: VVQLVESGGGLVLPGGSLKVSCAASGFIFSDYYIQWVRQAPGKGPEWVGLIRNKAVGETVQYAASLKGRFTISRDDSKSIAYLQMTSLKTEDTAMYYCVSRAGPPGLTWGQGVLVTVSS
VL: B2 VL with P12S, N28R, T32S, L38V, V51I, K58N, I90V, L94M, R97K

- ROS IC50: 1.67 nM
B5: Cab02 scFv (scFv, V domains shown)
VH: EVQLVESGGGLVQPGGSLKVSCAASGFIFSDYYMQWVRQAPGKGPEWVGLIRKKVNGGTTEYAASVKGRFTISRDDSKSIAYLQMSSLKIEDTAVYYCVSRAGPPGLTWGQGVLVTISS
VL: B1 VL with N7T, S28R, V98A, A104G

- ROS IC50: 1.54 nM
B6: Cab09 scFv (scFv, V domains shown)
VH: B5 VH
VL: B1 VL with N7T, L38V, L51I, S81T, K82N, M94L, V98A, L101P, A104G, G105Q

- ROS IC50: 1.07 nM
B7: Cab07 scFv (scFv, V domains shown)
VH: B1 VH with E1D, R30S, A60T, T99V, V117I
VL: DTVMTQIPLSLSVTPGEPASISCRSSQRLLHTDGYTYLDWYHQKPGQSPQLLIYGGSNRASGVPDRFSGSGSVTDFTLKISKMEAEDVGVYYCMQHKALPPTFGGGTKLEIK

- ROS IC50: 1.21 nM
B8: Cab27 scFv (scFv, V domains shown)
VH: B1 VH with E6Q, E58G, A60T, E61Q, T99V
VL: DAVMTQTPLSLPVTPGEPASISCRSSQSLLASDGYNYIDWYLQRPGQSPKVLIYGGSNRASGVPDRFSGSGSGTYFTLKISKVEAEDVGFYFCLQHRALPPTFGQGTKLEIK

- ROS IC50: 1.03 nM
B9: Cab06 scFv (scFv, V domains shown)
VH: B5 VH with Q3H, A81V
VL: B2 VL with N28S, T32S, T36N, L38M, Q50K, K58N, S81T, L94M, R97K, A98V

- ROS IC50: 1.26 nM
B10: Cab31 scFv (scFv, V domains shown)
VH: B1 VH with E1D, V2M, R30S, I56V, E58G, A60T, E61Q, Q84E, T99V
VL: B1 VL with I2T, I5S, N7I, L38M, L101P, A104G, G105Q, K108R

- ROS IC50: 1.2 nM
B11: Cab14 scFv (scFv, V domains shown)
VH: VVQLVESGGGLVQPGGSLKVSCATSGFTFSDYYMQWVRQAPGKGPEWLGLIRNKAIGGTTQYAASVKGRFTISRDDSKGIAYLQMSSLKTEDTAVYYCVCRAGPPGLSWGQGVLVTVSS
VL: B1 VL with V3E, M4L, I5T, N7T, L11R, S32T, V98A, A104G

- ROS IC50: 1.57 nM
B12: Cab11 scFv (scFv, V domains shown)
VH: EVQLVESGGGLVQPGGSLRVSCAASGFRFSDFYMQWVRQAPGKRPEWVGLIRNKPYGGTAEYAASVKGRFTISRDDSKSVTDLQMSSLKTEDTAIYYCVMRNNGYHWGQGVLVTISS
VL: B7 VL with T2A, S12P, R28S, H42L, V73G, M83V

- ROS IC50: 0.96 nM
B13: Cab29 scFv (scFv, V domains shown)
VH: B1 VH with E1D, V2M, R30S, I56V, E58G, A60T, E61Q, Q84E, T99V
VL: DIVMIQNPLSLSVSLGEPASISCRSSQSLLATDGYEYLDWYLQKPGQSPQILIYGASNRASGVPDRFSGRGSGTDFTLKITKVEAEDVGVYYCLQHKALPPTFGQGTKLEIK

- ROS IC50: 1.22 nM
B14: Cab12 scFv (scFv, V domains shown)
VH: B1 VH with E1V, R30S, A60T, E61Q, T99V, V117I
VL: B1 VL with M4L, I5T, N7T, S28R, L38M, L51I, V98A, L101P, A104G, G105Q

- ROS IC50: 1.29 nM
B15: Cab08 scFv (scFv, V domains shown)
VH: EVQLVESGGGLIQPGGSLRVSCAASGFTFSDYYLQWVRQAPGKGPEWVGLIRTKRYGGTSEYAASVKGRYTISRDDSKAIAYLQMSSLKTEDTAVYYCVVRIFTGLHWGKGTPVTVSS
VL: B1 VL with I5T, N7T, L11R, S32T, V98A, A104G

- ROS IC50: 0.87 nM
B16: Cab16 scFv (scFv, V domains shown)
VH: B1 VH with Q3H, R30S, A60T, T90P, T99A, S100G, A102L
VL: B1 VL with I2A, I5T, N7I, S32T, V98A, A104G, K108R

- ROS IC50: 2.02 nM
B17: Cab10 scFv (scFv, V domains shown)
VH: B5 VH with E1Q, A81V, V115I, I117V
VL: B1 VL with I2T, I5S, N7I, S32T, T36I, V98A, A104G

- ROS IC50: 0.91 nM
B18: Cab22 scFv (scFv, V domains shown)
VH: VVQLVESGGGLVQPGGSLKVSCTASGFIFNDYYMQWVRQAPGKGPEWVGLIRNKANGGTTEYAASVKGRFTISRDDSKSIVYLQMSSLKTEDTAVYFCTGRLGPPGLTWGQGVLVTISS
VL: B8 VL

- ROS IC50: 1.44 nM
B19: Cab24 scFv (scFv, V domains shown)
VH: B5 VH with E1V, A81V, T108A
VL: B8 VL

- ROS IC50: 0.7 nM
B20: Cab40 (reformatted as human IgG1) (antibody, V domains shown)
VH: EMQLVESGGGLVQPGGSLRLSCAASGFTFSDYYMQWVRQAPGKGPEWVGLIRNKAVGQTTQYAASVKGRFTISRDDSKNSVYLQMNSLKTEDTAVYYCVSRAGPPGLSWGQGVLVTVSS
VL: B8 VL with A2I, T7S, R44K, K50Q, V51L, Y75D, K82R, F90V

- ROS IC50: 0.54 nM
B21: Cab25 scFv (scFv, V domains shown)
VH: EVQLVESGGGFVQPGGSLKVSCVASGFTFSDYYIQWVRQAPGKGPEWVGLIRNKAVGGTTTYAASVKGRFTISRDDSKSVAYLQMTSLKTEDTAVYFCVSRAGPPGLSWGQGVLVTISS
VL: B8 VL

- ROS IC50: 0.92 nM
B22: Cab23 scFv (scFv, V domains shown)
VH: EVQLVESGGGLVQPGGSLRLSCAASGFTFSDYYIQWVRQAPGKGPEWVGLIRNKAIGGTVEYAASVKGRFTISRDDSKRIAYLQMRSLKTEDTAVYFCTGRVGPPGLTWGQGVLVTISS
VL: B8 VL

- ROS IC50: 1.7 nM
B23: Cab33 (reformatted as human IgG1) (antibody, V domains shown)
VH: B20 VH with Q58G
VL: B8 VL with A2I, T7S, R44K, K50Q, V51L, Y75D, K82R, F90V, R97K

- ROS IC50: 1.13 nM
B24: Cab26 scFv (scFv, V domains shown)
VH: B4 VH with V1E, V117I
VL: B8 VL

- ROS IC50: 0.91 nM
B25: Cab39 (reformatted as human IgG1) (antibody, V domains shown)
VH: B20 VH with Q58I
VL: B8 VL with A2I, T7S, R44K, K50Q, V51L, Y75D, K82R, F90V

- ROS IC50: 0.7 nM
B26: Cab41 (reformatted as human IgG1) (antibody, V domains shown)
VH: B20 VH with Q58R
VL: B8 VL with A2I, T7S, R44K, K50Q, V51L, Y75D, K82R, F90V

- ROS IC50: 1.76 nM
B27: Cab32 (reformatted as human IgG1) (antibody, V domains shown)
VH: B20 VH with Q58G
VL: B8 VL with A2I, T7S, N36I, R44K, K50Q, V51L, Y75D, K82R, F90V

- ROS IC50: 1.61 nM
B28: Cab34 (reformatted as human IgG1) (antibody, V domains shown)
VH: B20 VH with Q58G, Q61E
VL: B8 VL with A2I, T7S, R44K, K50Q, V51L, Y75D, K82R, F90V
